The text below walks through data of patent publication US20190218296A1 (APEXIGEN, published 2019).

For test [1], the target named is T1, recombinant human PD-L1 (human, UniProt Q9NZQ7 19-238, limits assumed).
T1 construct: also called PD-L1 protein
The test can be described thus: ELISA on human PD-L1, OD 650 nm. (In general: In an ELISA, binding on a coated surface is turned into a signal by an enzyme label.)

The target of test [2] is T2, human PD-L1 on cells (human, UniProt Q9NZQ7 19-290).
T2 construct: whole, on cells; also called HEK-PD-L1 cells; PD-L1-expressing HEK 293 cells
The test can be described thus: flow cytometry on activated CD4 T cells, MFI.

For test [3], the target named is T2, human PD-L1 on cells. The test can be described thus: flow cytometry on monocyte-derived dendritic cells, MFI. (A flow cytometer gives signals particle by particle.)
Test [4] has as its target T2, human PD-L1 on cells. The test can be described thus: flow cytometry on monocyte-derived dendritic cells; PE anti-human Fc, MFI. The procedure:
The chimeric PD-L1 antibodies were further assessed for their ability to bind to human myeloid-derived dendritic cells. CD14 monocytes were isolated from PBMC using directly conjugated magnetic beads (Miltenyi) and cultured for 7 days in the presence of GM-CSF (100 ng/ml) and IL-4 (50 ng/ml) (Peprotech) to generate myeloid dendritic cells (mDC). mDC were added to 96-well plates (100,000 cells/well) and serial dilution of anti-PD-L1 antibodies or IgG1 isotype control antibody was added in duplicates and plates were incubated for 30 min on ice. After washing, a PE-conjugated donkey anti-human Fc specific antibody (Jackson Immunoresearch, 1:200 dilution) was added and plates were further incubated for 15 minutes on ice. After washing, cells were analyzed using a MACS quant flow cytometer.

Test [5] has as its target T2, human PD-L1 on cells. The test can be described thus: flow cytometry on activated CD4 T cells, saturation fit on a linear axis.
In test [6] the target is T2, human PD-L1 on cells. The test can be described thus: flow cytometry on human PD-L1 transfected HEK 293 cells; PE anti-human Fc, MFI. On the procedure: Stable human PD-L1 transfected HEK 293 cells (Crown Bio, San Diego, Calif.) were added to 96-well plates (100,000 cells/well) and serial dilution of anti-PD-L1 antibodies or IgG1 isotype control antibody was added in duplicates and plates were incubated for 30 minutes on ice. After washing, a PE-conjugated donkey anti-human Fc specific antibody (Jackson Immunoresearch, West Grove, Pa. 1:200 dilution) was added and plates were further incubated for 15 minutes on ice. After washing, cells were analyzed using a MACS quant flow cytometer.

The target of test [7] is T2, human PD-L1 on cells. The test can be described thus: flow cytometry on monocyte-derived dendritic cells, saturation fit on a linear axis.
The target of test [8] is T1, recombinant human PD-L1. The test can be described thus: direct ELISA on plate-coated recombinant human PD-L1; anti-human Fc-HRP, TMB, OD 650 nm. The procedure:
(§1) To assess specificity of the selected clones, a direct ELISA for human and cynomolgus monkey PD-L1 was performed. ELISA plates were coated with recombinant human or cynomolgus monkey PD-L1. […] Serial dilutions of chimeric anti-PD-L1 antibodies were added, and a secondary HRP-conjugated, anti-human Fc-specific antibody was added. After washing, TMB substrate was added and plates were read at OD 650 nm.

Test [9] has as its target T3, recombinant cynomolgus monkey PD-L1 (cynomolgus monkey, UniProt G7PSE7 19-238).
T3 construct: also called cynomolgus macaque PD-L1
The test can be described thus: direct ELISA on plate-coated recombinant cynomolgus monkey PD-L1; anti-human Fc-HRP, TMB, OD 650 nm. On the procedure: as §1

The target of test [10] is T4, human PD-L1-his (Sino Biologics) (human, UniProt Q9NZQ7 19-238).
T4 construct: Bought from Sino Biologics; not shown: his tag
The test can be described thus: competition ELISA: human PD-L1-his coated at 1 µg/ml, antibody dilutions, then human PD-1-mouse-Fc at 1 µg/ml, anti-mouse IgG-HRP, OD 650 nm. On the procedure:
Plates were coated with 100 μl of 1 μg/ml human PD-L1-his (Sino Biologics, Beijing, China) in carbonate-bicarbonate buffer overnight. After washing, plates were blocked with PBS 0.05% Tween-20 for 1 hour, and serial dilutions of anti-PD-L1 human chimeric antibody or IgG1 isotype control antibody was added. […] After washing, goat anti-mouse IgG (H+L)-HRP antibody (Jackson ImmunoResearch West Grove, Pa.) and plates were further incubated for 1 hour. After washing, TMB substrate (SurModics, Eden Prairie, Minn.) was added. The reaction was stopped using stop solution (SurModics) and plates were read at OD=650 nanometer.

Test [11] addresses T2, human PD-L1 on cells. The test can be described thus: flow cytometry on CD4 T cells activated with anti-CD3; MFI; column head prints only EC50, unit taken from the axis Antibody Concentration (nM).
For test [12], the target named is T2, human PD-L1 on cells. The test can be described thus: flow cytometry on HEK PD-L1 cells, MFI.
Test [13] deals with T2, human PD-L1 on cells. The test can be described thus: flow cytometry on HEK-PD-L1 cells; PE anti-human Fc, MFI.
In test [14] the target is T2, human PD-L1 on cells. The test can be described thus: flow cytometry on HEK PD-L1 cells, saturation fit on a linear axis.
For test [15], the target named is T2, human PD-L1 on cells. The test can be described thus: flow cytometry on HEK-PD-L1 cells, saturation fit on a linear axis; column head prints only Kd, unit taken from the axis Ab (nM).

T3 sequence (G7PSE7 entry or part of it limits assumed): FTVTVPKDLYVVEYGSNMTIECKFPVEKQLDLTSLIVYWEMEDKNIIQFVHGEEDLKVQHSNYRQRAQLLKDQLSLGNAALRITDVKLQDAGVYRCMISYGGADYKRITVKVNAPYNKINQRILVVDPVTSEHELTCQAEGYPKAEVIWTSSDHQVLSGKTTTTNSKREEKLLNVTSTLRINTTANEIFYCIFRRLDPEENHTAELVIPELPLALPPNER
T2 sequence (Q9NZQ7 19-290): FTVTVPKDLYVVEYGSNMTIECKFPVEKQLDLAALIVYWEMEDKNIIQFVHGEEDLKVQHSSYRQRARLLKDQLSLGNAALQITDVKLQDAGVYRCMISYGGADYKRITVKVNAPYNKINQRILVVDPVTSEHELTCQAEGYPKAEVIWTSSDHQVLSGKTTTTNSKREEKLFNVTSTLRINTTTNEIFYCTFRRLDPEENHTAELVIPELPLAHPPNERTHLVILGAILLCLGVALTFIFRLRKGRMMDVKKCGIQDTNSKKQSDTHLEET
T1 sequence (Q9NZQ7 19-238 limits assumed): as the sequence (G7PSE7 entry or part of it limits assumed) above, with T33A, S34A, N62S, Q68R, R82Q, L173F, A185T, I192T, L215H counted along it
T4 sequence (Q9NZQ7 19-238 limits assumed): as the sequence (G7PSE7 entry or part of it limits assumed) above, with T33A, S34A, N62S, Q68R, R82Q, L173F, A185T, I192T, L215H counted along it

B1: h15E9_HZD1 (antibody, V domains shown)
VH: EVQLVESGGGLVQPGGSLRLSCAASGFDISNYWMSWVRQAPGKGLEWVGIISTGGNTWYASWVKGRFTISRDNSKNTLYLQMNSLRAEDTAVYYCARVVIYGGTTSSFNLWGQGTLVTVSS
VL: DIQMTQSPSSLSASVGDRVTITCQSSQNVYNKIRLSWYQQKPGKAPKELIYAASSLASGVPSRFSGSGSGTEFTLTISSLQPEDFATYYCQGGYSGPIYAFGGGTKVEIK
notes: also called humanized 15E9 HZD1
Turning to B1, in test [1], the half-maximal effective concentration (EC50) (usually the concentration giving half of the maximal effect) turned out to be 0.267 µg/mL.

B2: h15E9_HZD2 (antibody, V domains shown)
VH: EVQLVESGGGLVQPGGSLRLSCAASGFDISNYWMSWVRQAPGKGLEWVGIISTGGNTWYASWVKGRFTISRDNSKNTLYLQMNSLRAEDTAVYYCARVVIYGGTTSSFNLWGQGTLVTVSS
VL: DIQMTQSPSSLSASVGDRVTITCQSSQNVYNKIRLSWYQQKPGKAPKRLIYAASSLASGVPSRFSGSGSGTEFTLTISSLQPEDFATYYCQGGYSGPIYAFGGGTKVEIK
notes: also called humanized 15E9 HZD2
Turning to B2, in [1], the EC50 was 1.62 µg/mL.

B3: chimeric anti-PD-L1 antibody 15E9 (antibody, human IgG1, V domains shown)
VH: QSVEESGGRLVTPGTPLTLTCTVSGFDISNYWMSWVRQAPGKGLEYIGIISTGGNTWYASWVKGRFTISKTSTTVDLKMTSLTTEDTATYFCVRVVIYGGTTSSFNLWGPGTLVTVSS
VL: QVLTQTASPVSAAVGGTVTINCQSSQNVYNKIRLSWFQQKSGQPPKELIYAASSLASGVPSRFKGSGSGTEFTLTISDLECDDAATYYCQGGYSGPIYAFGGGTEVVVK
As to B3, the EC50 was determined as 0.0138 µg/mL in [1]; 0.756 nM in test [2]; 0.9 nM in [3]; 1.1 nM in [4]; 0.58 nM in test [6]. Also, the dissociation constant Kd (usually the free concentration of one partner at which half of the binding sites on the other are occupied at equilibrium, for simple one-to-one binding) in test [5] stood at 0.026 nM; in [7], 0.42 nM. Besides, the EC50 (read off the curve) – broadly, the concentration needed to bring the measured effect to its halfway point – in test [8] is about 0.004 µg/mL. For the same molecule, the binding result in test [9] is recorded as “no binding (tested: 1000 ng/ml)”.

B4: chimeric anti-PD-L1 antibody 27H2 (antibody, human IgG1, V domains shown)
VH: QSLEESGGDLVKPGASLTLTCTASGFSFSSGDYMCWVRQAPGKGLEGIACIYGGSSGSTYYANWAKGRFTISKTSSTTVTLQMTSLAAADTATYFCARDFRDVGYGYASFRLWGPGILVTVSS
VL: DIVMTQTPASVSEPVGGTVTIKCQASQSISSWLSWYQQKPGQPPKLLIYGASNLESGVSSRFKGSGSGTEYTLTISDLECADAATYYCQSNYGSSSSSLNAFGGGTEVVVK
B4: the binding result in test [9] is recorded as “no binding (tested: 1000 ng/ml)”. The “IC50 (read off the curve)” value in test [10] was about 0.02 µg/mL. In test [11], it took 0.75 nM to reach a half-maximal effect (EC50).

B5: chimeric anti-PD-L1 antibody 51D5 (antibody, human IgG1, V domains shown)
VH: QSVEESGGRLVTPGTPLTLTCIVSGFSLSSYWMSWVRRAPGKGLEWIGYINGGSGNPYYASWAKGRFTISKTSTTVDLKITSPTTEDTATYFCARGGESDDYVYGRYGLDPWGPGTLVTVSS
VL: AYDMTQTPASVSEPVGGTVTIKCQASQSISSWLSWYQQKPGQPPKLLIYDASKLASGVPSRFSGSGSGTQFTLTISDLECDDAATYYCQQDYSSYNVDNTFGGGTEVVVK
notes: also called chimeric 51D5; c51D5
Regarding B5, the EC50 in [1] came to 0.0117 µg/mL; in test [12], 0.32 nM; in [2], 1.03 nM; in [3], 1.12 nM. Besides, in test [13], the “EC50 (read off the curve)” value was about 1 nM. In addition, the Kd in test [14] is 0.16 nM; in test [5], 0.025 nM; in [7], 0.5 nM; in test [15], 0.91 nM. Moreover, the “IC50 (read off the curve)” value in test [10] was about 0.2 µg/mL.

B6: chimeric anti-PD-L1 antibody 23D12 (antibody, human IgG1, V domains shown)
VH: QSVEESGGRLVTPGTPLTLTCTVSGFSLSNYVMGWVRQAPGKGLEYIGIISNSDNTYYATWATGRFTISKTSTTVDLKMTSLTTEDTATYFCARVDTYYNDFNLWGPGTLVTVSS
VL: QVLTQTPSSVEAAVGGTVTIKCQASEDIERYLAWYQQKPGQPPKQLIYDASKLASGVSSRFKGSGSGTEFTLTISGVQCDDAATYYCQHGYIYSSGNPFGGGTEVVVK
Turning to B6, the EC50 stood at 1.7 nM in test [4] and 1.3 nM in [11]. Further, the “EC50 (read off the curve)” value in [8] was about 0.007 µg/mL; in test [9], about 0.006 µg/mL.

B7: h9A9-HZD1 (antibody, V domains shown)
VH: EVQLVESGGGLVQPGGSLRLSCAASGIDLSGYWMSWVRQAPGKGLEWVGIVDNDGSAYYASWVNGRFTISRDNSKNTLYLQMNSLRAEDTAVYYCARQSGDWTFDLWGQGTLVTVSS
VL: DIQMTQSPSTLSASVGDRVTITCQASQSIGRWLSWYQQKPGKAPKLLIYQASKLASGVPSRFSGSGSGTEFTLTISSLQPDDFATYYCQNNYDIIAYGNAFGGGTKVEIK
notes: also called humanized 9A9 HZD1
On to B7, for which the concentration for a half-maximal effect (EC50) in [1] is 0.0159 µg/mL.

B8: h9A9-HZD2 (antibody, V domains shown)
VH: EVQLVESGGGLVQPGGSLRLSCAASGFDVSGYWMSWVRQAPGKGLEWVGIVDNDGSAYYASWVNGRFTISRDNSKNTLYLQMNSLRAEDTAVYYCARQSGDWTFDLWGQGTLVTVSS
VL: DIQMTQSPSTLSASVGDRVTITCQASQSIGRWLSWYQQKPGKAPKLLIYQASKLASGVPSRFSGSGSGTEFTLTISSLQPDDFATYYCQNNYDIIAYGNAFGGGTKVEIK
notes: also called humanized 9A9 HZD2
As for B8, the EC50 in [1] is 0.0126 µg/mL.

B9: chimeric anti-PD-L1 antibody 43G2 (antibody, human IgG1, V domains shown)
VH: QSVEESGGRLVTPGTPLTLTCTVSGFSLSSYAMGWVRQAPGEGLEYIGFIDTHGSAYYATWAKGRFTISRTSTTVDLKITSPTTEDTATYFCARNVWTNAGYFNLWGPGTLVTVSS
VL: DVVMTQTPSSVSAAVGGTVTIKCQASQNIYTNLAWYQQKPGQPPKLLIYSASTLASGVPSRFKGSGSGTQFTLTISDLECADAATYYCQTYGALIINGGAFGGGTEVVVK
Take B9: the 50% effective concentration (EC50) in test [4] was determined as 1.6 nM; in test [11], 7.7 nM. Further, the “EC50 (read off the curve)” value was about 0.006 µg/mL in test [8] and about 0.005 µg/mL in test [9].

B10: h51D5_HZD1 (antibody, V domains shown)
VH: EVQLVESGGGLVQPGGSLRLSCAASGFSLSSYWMSWVRRAPGKGLEWVGYINGGSGNPYYASWAKGRFTISRDNSKNTLYLQMNSLRAEDTAVYYCARGGESDDYVYGRYGLDPWGQGTLVTVSS
VL: DIQMTQSPSTLSASVGDRVTITCQASQSISSWLSWYQQKPGKAPKLLIYDASKLASGVPSRFSGSGSGTEFTLTISSLQPDDFATYYCQQDYSSYNVDNTFGGGTKVEIK
notes: also called humanized 51D5 HZD1
For B10, the EC50 in [1] came to 0.0156 µg/mL.

B11: h51D5_HZD2 (antibody, V domains shown)
VH: EVQLVESGGGLVQPGGSLRLSCAASGFSLSSYWMSWVRQAPGKGLEWVGYINGGSGNPYYASWAKGRFTISRDNSKNTLYLQMNSLRAEDTAVYYCARGGESDDYVYGRYGLDPWGQGTLVTVSS
VL: DIQMTQSPSTLSASVGDRVTITCQASQSISSWLSWYQQKPGKAPKLLIYDASKLASGVPSRFSGSGSGTEFTLTISSLQPDDFATYYCQQDYSSYNVDNTFGGGTKVEIK
notes: also called humanized 51D5 HZD2
As for B11, the EC50 in test [1] was 0.0169 µg/mL.
